Earlier results as cited in patent US11850285B2, “Insulin-responsive glucagon delivery patch” (North Carolina State University, priority 2017, dated 2023).

Conditions: in vivo

**Q.** For Insulin glargine, which duration is on record?
**A.** up to 24 hour
